The text below walks through data of paper PMC10870823 (mBio, 2023).

Usually Kd stands for a measure of binding affinity in units of concentration. Read a low Kd as a tighter complex.

In this experiment the target is T1, SARS-CoV-2 (Wuhan / WA-1) Spike RBD-mouse IgG2a Fc fusion protein (SARS-CoV-2, UniProt P0DTC2).
T1 construct: source: recombinant, purified
In words: BLI. The note with it: both partners purified.

B1: FG-10A3 (Family G clone 10A3) human anti-SARS-CoV-2 Spike RBD monoclonal antibody (antibody, V domains shown)
VH: QVQLVESGGGVVQPGRSLRLSCAASGFTFSSYGMNWVRQAPGKGLEWVAIIWYDGNNTYYVDSVKGRFTISRDNSKNTLYLQMNSLRAEDTAVYYCARKDGSKTYYGYYFDYWGQGTLVTVSS
VL: DIQMTQSPSSLSASVGDRVTITCRASQSIHSFLNWYQQKPGKPPNLLIYAASSLQSGLPSRFSGSGSGTDFTLTISSLQPEDFATYYCQQSYITPPTFGHGTKVEIK
notes: also called Family G (FG)-10A3
On to B1, for which the Kd worked out at 125 pM.
